Earlier results on one molecule are cited in PMC4586518, “Melanin production through novel processing of proopiomelanocortin in the extracellular compartment of the auricular skin of C57BL/6 mice after UV-irradiation” (Scientific Reports, 2015).

For data set [1], the system named is MC-1R. From the text: Melanin plays an important role in protecting skin after UV-irradiation. α-MSH is a major catalyst for melanogenesis in the skin following UV-irradiation. α-MSH-LI and ACTH-LI may be present in culture media of normal keratinocytes, fibroblasts, melanocytes, and their cell extracts. Although POMC and POMC-derived peptides such as ACTH and α-MSH are released from the intermedia of the pituitary, it is unlikely that pituitary secretions contribute to local pigmentation. In the present report, POMC-related peptides were detected in the UV-irradiated auricle ... || Structure-activity analyses of α-MSH have reported information on the essential sequence required for MC-1R binding and melanin production. […] However, Ac-His-Phe-Arg-Trp-NH2 had 400,000-fold less activity (EC50 20 μM) than α-MSH in a frog skin bioassay[31] and approximately 7,000-fold less activity (EC50 1 μM) in a lizard skin bioassay. Furthermore, the N-terminal region of α-MSH is ...

The test system of data set [2] is MC-1R. On the set-up: method as in 2 sources, ref 23 = [23]; PMID 17317724; doi:10.1096/fj.06-7398com; Rousseau K. et al. Proopiomelanocortin (POMC), the ACTH/melanocortin precursor, is secreted by human epidermal keratinocytes and melanocytes and stimulates melanogenesis . FASEB J 21 , 1844 – 1856 ( 2 ||| ref 34 = [34]; PMID 1556905; doi:10.1016/0024-3205(92)90347-r; Slominski. A. et al. Melanotropic activity of gamma MSH peptides in melanoma cells . Life Sci , 50 , 1103 – 1108 ( 1992 ). 1556905 10.1016/0024-3205(92)90347-r. To be noted: MC-1R. The source says:
To clarify the mechanism of melanin production after UV-irradiation, we assessed the expression of POMC and POMC-derived peptides after UV-irradiation to the skin of the murine auricle.

B1: proopiomelanocortin (protein, UniProt P01189 1-267, looked up)
chain: MPRSCCSRSGALLLALLLQASMEVRGWCLESSQCQDLTTESNLLECIRACKPDLSAETPMFPGNGDEQPLTENPRKYVMGHFRWDRFGRRNSSSSGSSGAGQKREDVSAGEDCGPLPEGGPEPRSDGAKPGPREGKRSYSMEHFRWGKPVGKKRRPVKVYPNGAEDESAEAFPLEFKRELTGQRLREGDGPDGPADDGAGAQADLEHSLLVAAEKKDEGPYRMEHFRWGSPPKDKRYGGFMTSEKSQTPLVTLFKNAIIKNAYKKGE
modifications: full-length
notes: precursor of α-MSH and ACTH; 32 kDa
In the case of B1, the “influence on melanogenesis via MC-1R” value with MC-1R [1] was “only slightly influenced melanogenesis via MC-1R”. Besides, in the data set on MC-1R [2], the “affinity for MC-1R” value is “markedly low”.
